Assay: Protein integrity of encapsulated hGH by size exclusion HPLC (SEC-HPLC): dimer, polymer and aggregate forms
Format: physicochemical
Details: before encapsulation
Protocol: Three batches of maltodextrin microspheres were prepared (50% W/W, 1 ml, 1 ml and 1.8 ml, respectively, in sodium acetate, 10 mM, pH 6.4, 2 mM zinc acetate) in which the GH was suspended manually. The compositions were transferred to Miglyol 829 (10, 20 and 30 ml, respectively), W/O emulsions were created by homogenization (Turrax) and left under refrigeration over night (about 16 hours), then centrifuged (Sorvall SS34, 7000 rpm, 10 min) and washed three times with cold acetone (about 30 g, centrifugation 5 min), allowed to air dry and sieved. The batches were sieved and then pooled. […] The protein quality was determined after centrifugation using HPLC size exlusion chromatography (SEC-HPLC, TSK2000 SWxl, Tosoh Corporation) according to Reslow et al. (supra). […] The fractions were pooled to provide about 0.57 g of cores.
The core loading was about 75% on the pooled batches. Protein integrity was determined after suspending the cores in a buffer (50 mM HEPES, 10 mM EDTA, pH 7.3). After gentle mixing for about one hour the cores had dissolved.
Free flowing single core microcapsules were obtained as evaluated by light microscopy. Protein integrity was determined essentially according to Reslow et al. (supra), including removal of the PLGA coating with a mixture of methylene chloride and acetone.

For Human growth hormone [hGH], the “dimer content of hGH starting material / before immobilisation” value was “approximately 2.4%” and the “dimer content of hGH starting material / before immobilisation” value (listed as GH) was “about 2.4%”.
